According to patent publication US20100022006, “GAMMA SATELLITE INSULATOR SEQUENCES AND THEIR USE IN PREVENTING GENE SILENCING” (THE GOVT. OF THE USA AS REPRESENTED BY THE SECRETA, published 2010):

T1: CTCF 11 ZF DNA binding domain (UniProt P49711 P49711:266-577)
T1 sequence: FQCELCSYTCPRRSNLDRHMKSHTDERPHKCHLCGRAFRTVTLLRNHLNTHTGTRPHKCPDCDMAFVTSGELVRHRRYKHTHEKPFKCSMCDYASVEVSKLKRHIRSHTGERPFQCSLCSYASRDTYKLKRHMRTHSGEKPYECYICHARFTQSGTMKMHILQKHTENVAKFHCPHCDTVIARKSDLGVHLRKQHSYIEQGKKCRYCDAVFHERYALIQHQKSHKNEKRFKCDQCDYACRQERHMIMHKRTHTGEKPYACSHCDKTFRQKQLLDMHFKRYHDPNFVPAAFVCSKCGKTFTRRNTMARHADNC


Tests used:
[1] = molecular target: T1, CTCF 11 ZF DNA binding domain; assay: EMSA; among strongest binding; conditions: tags: pET16b-11ZF construct, TnT reticulocyte lysate (Promega); label: 32P
Procedure: (§1) Gamma-satellite monomers from human chromosome X and Y were PCR amplified from genomic DNA, cloned into TA vector and sequenced before their analysis by electrophoretic mobility gel-shift assay (EMSA). Binding reactions were carried out in buffer containing standard PBS with 5 μM MgCl₂, 0.1 μM ZnSO4, 1 μM DTT, 0.1% NP40, and 10% glycerol in the presence of poly(deoxyinosinic-deoxy-CMP) and salmon sperm DNA. Reaction mixtures of 20 μL final volume were incubated for 30 minutes at room temperature and then analyzed on 5% nondenaturing gel using polyacrylamide gel electrophoresis (PAGE) in 0.5×TBE buffer. For EMSA with in vitro methylated DNA probes, treatment with the SssI-methylase was done as previously described for CTCF-binding fragments DMD4 and DMD7 of the H19 ICR (Kanduri et al., Curr. Biol., 10:853-856, 2000). The extent of methylation was verified by digestion overnight with Sau96I restriction endonuclease. Methylation interference analysis was carried out as described previously (Filippova et al., 1996; ibid).
Electrophoretic mobility shift assays (EMSA) were performed. A set of overlapping fragments corresponding to an 1′-mer of the human gamma 8, were radiolabeled and incubated with the in vitro translated 11 ZF DNA binding domain of the CTCF protein. Recombinant luciferase protein prepared by the same in vitro translation reaction was used as a negative control. […] The presence of CTCF-binding sites was also checked in the human alpha-satellite DNA array lacking anti-silencing (insulating) activity. None of 11 alpha-satellite monomers analyzed bound the CTCF protein in vitro.

[2] = molecular target: T1, CTCF 11 ZF DNA binding domain; assay: footprint; methylation interference on fragment 11: seven contact guanines (3 sense, 4 antisense); 55 bp core of 100 bp fragment printed; conditions: tags: pET16b-11ZF construct, TnT reticulocyte lysate (Promega)
Procedure: as §1, with “Binding” for “Gamma-satellite monomers from human chromosome X and Y were PCR amplified from genomic DNA, cloned into TA vector and sequenced before their analysis by electrophoretic mobility gel-shift assay (EMSA). Binding”
To determine the contact guanine residues recognized by CTCF in gamma-satellite DNA, methylation interference assays (a method that identifies guanine residues in the CTCF binding site that make contact with CTCF zinc fingers) were conducted using a ³²P-labeled fragment of the gamma-satellite monomer (fragment #11). A strong interference of guanine methylation with CTCF-DNA binding was found in three and four guanine residues on sense and anti-sense strands, respectively (FIG. 5B). […]

[3] = molecular target: T1, CTCF 11 ZF DNA binding domain; assay: EMSA; mutation knocked down binding; conditions: tags: pET16b-11ZF construct, TnT reticulocyte lysate (Promega)
Procedure: as §1
To confirm in vitro mapping results, four guanine residues within the predicted core sequence were selectively mutated, as indicated in FIG. 12. […] To determine if CTCF binding is methylation-dependent, gamma-satellite 8 PCR fragments were methylated with a SssI methyltransferase. […] It is worth noting that in most previously reported cases, methylation prevents CTCF binding (Ohlsson et al., Trends Genet., 17:520-527, 2001).

[4] = molecular target: T1, CTCF 11 ZF DNA binding domain; assay: EMSA; among strongest binding; PBS, Mg, Zn, poly(dI-dC), room temperature; ~250 bp probe containing the monomer; conditions: tags: pET16b-11ZF construct, TnT reticulocyte lysate (Promega); label: 32P
Procedure: as §1
(§2) Electrophoretic mobility shift assays (EMSA) were performed. A set of overlapping fragments corresponding to an 1′-mer of the human gamma 8, were radiolabeled and incubated with the in vitro translated 11 ZF DNA binding domain of the CTCF protein. […] None of 11 alpha-satellite monomers analyzed bound the CTCF protein in vitro.

[5] = molecular target: Luciferase (in vitro translated control) (UniProt P08659 P08659:1-550); assay: EMSA; negative control lysate; conditions: tags: Luciferase T7 control DNA (Promega); label: 32P
Procedure: as §1, §2

[6] = molecular target: T1, CTCF 11 ZF DNA binding domain; assay: EMSA; CpG methylation does not affect binding; conditions: tags: pET16b-11ZF construct, TnT reticulocyte lysate (Promega); label: 32P
Procedure: as §1
To confirm in vitro mapping results, four guanine residues within the predicted core sequence were selectively mutated, as indicated in FIG. 12. […] To determine if CTCF binding is methylation-dependent, gamma-satellite 8 PCR fragments were methylated with a SssI methyltransferase. […]

Sequence of Luciferase (in vitro translated control) (P08659 whole entry, one chain of several): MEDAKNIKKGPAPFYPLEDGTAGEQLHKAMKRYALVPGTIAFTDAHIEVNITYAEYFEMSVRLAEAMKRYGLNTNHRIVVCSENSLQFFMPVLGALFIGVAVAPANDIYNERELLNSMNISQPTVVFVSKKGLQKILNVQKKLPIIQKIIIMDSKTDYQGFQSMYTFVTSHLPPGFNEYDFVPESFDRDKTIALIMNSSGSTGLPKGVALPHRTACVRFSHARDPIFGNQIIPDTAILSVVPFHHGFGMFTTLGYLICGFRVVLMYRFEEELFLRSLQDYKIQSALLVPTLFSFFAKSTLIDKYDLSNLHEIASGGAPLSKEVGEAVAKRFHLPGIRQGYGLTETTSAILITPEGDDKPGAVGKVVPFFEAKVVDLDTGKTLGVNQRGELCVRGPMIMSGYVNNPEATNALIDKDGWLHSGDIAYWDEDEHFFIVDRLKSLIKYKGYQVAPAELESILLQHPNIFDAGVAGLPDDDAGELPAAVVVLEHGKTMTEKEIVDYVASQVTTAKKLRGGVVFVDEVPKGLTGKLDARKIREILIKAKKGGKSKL

| Binder | binding result [1] | binding result [3] | also measured |
| --- | --- | --- | --- |
| gamma-satellite 8 fragment 5 (monomer 4) (dsDNA) DNA 1: CAAAAACAAGGCCGCAGGGTGGCGTGGGCGGGCCGCAGGGACTCAGGTGGAAATTGTGG DNA 2: CCACAATTTCCACCTGAGTCCCTGCGGCCCGCCCACGCCACCCTGCGGCCTTGTTTTTG | binds |  |  |
| gamma-satellite 8 fragment 6 (monomer 5) (dsDNA) DNA 1: CAAAAACAGTGCCGCAGTGTGGCCTGGGCGGGCCACAGGGACTCAGGGAGACGTTGAGG DNA 2: CCTCAACGTCTCCCTGAGTCCCTGTGGCCCGCCCAGGCCACACTGCGGCACTGTTTTTG | binds |  |  |
| gamma-satellite 8 monomer 8 WT-8 core (dsDNA) DNA 1: CGAAAATGGGGCCACTGGGTGGCCTGAACGAGCCAAAGGGACTCAGGGTGACACT DNA 2: AGTGTCACCCTGAGTCCCTTTGGCTCGTTCAGGCCACCCAGTGGCCCCATTTTCG |  |  | binding result [2]: binds |
| gamma-satellite 8 monomer 8 Mu2 (dsDNA) DNA 1: CGAAAATGGGGCCACTGAGTGGTTTGAATGAGCCAAAGGGACTCAGGGTGACACT DNA 2: AGTGTCACCCTGAGTCCCTTTGGCTCATTCAAACCACTCAGTGGCCCCATTTTCG |  | no binding |  |
| gamma-satellite 8 monomer 8 Mu1 (dsDNA) DNA 1: CGAAAATGGGGCCACTAAATGGTCTGAACGAGCCAAAGGGACTCAGGGTGACACT DNA 2: AGTGTCACCCTGAGTCCCTTTGGCTCGTTCAGACCATTTAGTGGCCCCATTTTCG |  | no binding |  |
| gamma-satellite 8 monomer 8 Mu3 (dsDNA) DNA 1: CGAAAATGGGGTCATTAGGTGGTCTGAATGAGCCAAAGGGACTCAGGGTGACACT DNA 2: AGTGTCACCCTGAGTCCCTTTGGCTCATTCAGACCACCTAATGACCCCATTTTCG |  | no binding |  |
| gamma-satellite 8 fragment 10 (monomer 7) (dsDNA) DNA 1: TGAAAACAGGGAGGCAGGGTGGCATGGCCAGGCCGCAGGGACTATGGTGGACATTGTGG DNA 2: CCACAATGTCCACCATAGTCCCTGCGGCCTGGCCATGCCACCCTGCCTCCCTGTTTTCA | binds |  |  |
| gamma-satellite 8 fragment 8 (monomer 6) (dsDNA) DNA 1: AGACAACAGGGCGGCTGGATGGCATGGGCCGATCGTAGGAACCCAGGGAGACATTGAGG DNA 2: CCTCAATGTCTCCCTGGGTTCCTACGATCGGCCCATGCCATCCAGCCGCCCTGTTGTCT | binds |  |  |
| gamma-satellite 8 fragment 11 (monomer 8) (dsDNA) DNA 1: CGAAAATGGGGCCACTGGGTGGCCTGAACGAGCCAAAGGGACTCAGGGTGACACTGAGG DNA 2: CCTCAGTGTCACCCTGAGTCCCTTTGGCTCGTTCAGGCCACCCAGTGGCCCCATTTTCG |  |  | binding result [4]: binds; binding result [5]: no binding |
| SssI-methylated gamma-satellite 8 fragment (dsDNA, 5mC at CpG (SssI)) DNA 1: CGAAAATGGGGCCACTGGGTGGCCTGAACGAGCCAAAGGGACTCAGGGTGACACTGAGG DNA 2: CCTCAGTGTCACCCTGAGTCCCTTTGGCTCGTTCAGGCCACCCAGTGGCCCCATTTTCG |  |  | binding result [6]: binds |
